Measurements reported in US20230018670A1.

Molecular target: mB7H3 (endogenous mouse B7H3 on B16 and B78 cells) (mouse) (UniProt Q8VE98)
Assay: flow cytometry on B16 cells (no GD2, mouse B7H3), 1 ug antibody per million cells, GAH PE; anti-GD2 antibody as control

Chain of mB7H3 (endogenous mouse B7H3 on B16 and B78 cells) (mouse) (Q8VE98 29-316 limits assumed): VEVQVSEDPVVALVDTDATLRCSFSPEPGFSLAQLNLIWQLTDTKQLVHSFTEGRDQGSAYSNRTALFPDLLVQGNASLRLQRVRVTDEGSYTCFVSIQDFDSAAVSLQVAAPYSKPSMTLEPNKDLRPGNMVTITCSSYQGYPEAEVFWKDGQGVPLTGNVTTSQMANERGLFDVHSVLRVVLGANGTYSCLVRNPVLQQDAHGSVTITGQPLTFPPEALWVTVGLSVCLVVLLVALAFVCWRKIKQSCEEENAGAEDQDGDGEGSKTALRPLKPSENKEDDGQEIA

Work on Invenra Dinutuximab (antibody) yielded an MFI of 1 MFI.
